± gives the standard deviation of the averaged measurements.
Experiment: total protein half-life in vivo (active degradation + dilution); higher = more stable protein
[1] = E. coli NCM3722 delta-clpP delta-lon delta-hslV, growth: N-lim chemostat, doubling time 6 h
[2] = E. coli NCM3722 delta-clpP, growth: N-lim chemostat, doubling time 6 h
[3] = E. coli NCM3722 delta-hslV, growth: N-lim chemostat, doubling time 6 h
[4] = E. coli NCM3722 delta-lon, growth: N-lim chemostat, doubling time 6 h
[5] = E. coli NCM3722 delta-smpB, growth: N-lim chemostat, doubling time 6 h
[6] = wild type E. coli NCM3722, growth: C-lim chemostat, doubling time 3 h
[7] = wild type E. coli NCM3722, growth: C-lim chemostat, doubling time 6 h
[8] = wild type E. coli NCM3722, growth: C-lim chemostat, doubling time 12 h
[9] = wild type E. coli NCM3722, growth: N-lim chemostat, doubling time 6 h
[10] = wild type E. coli NCM3722, growth: N-lim chemostat, doubling time 12 h
[11] = wild type E. coli NCM3722, growth: P-lim chemostat, doubling time 6 h
[12] = wild type E. coli NCM3722, growth: P-lim chemostat, doubling time 12 h

Sequence | total protein half-life in vivo [1] [h] | total protein half-life in vivo [2] [h] | total protein half-life in vivo [3] [h] | total protein half-life in vivo [4] [h] | total protein half-life in vivo [5] [h] | total protein half-life in vivo [6] [h] | total protein half-life in vivo [7] [h] | total protein half-life in vivo [8] [h] | total protein half-life in vivo [9] [h] | total protein half-life in vivo [10] [h] | total protein half-life in vivo [11] [h] | total protein half-life in vivo [12] [h]
MSKRRVVVTGLGMLSPVGNTVESTWKALLAGQSGISLIDHFDTSAYATKFAGLVKDFNCEDIISRKEQRKMDAFIQYGIVAGVQAMQDSGLEITEENATRIGAAIGSGIGGLGLIEENHTSLMNGGPRKISPFFVPSTIVNMVAGHLTIMYGLRGPSISIATACTSGVHNIGHAARIIAYGDADVMVAGGAEKASTPLGVGGFGAARALSTRNDNPQAASRPWDKERDGFVLGDGAGMLVLEEYEHAKKRGAKIYAELVGFGMSSDAYHMTSPPENGAGAALAMANALRDAGIEASQIGYVNAHGTSTPAGDKAEAQAVKTIFGEAASRVLVSSTKSMTGHLLGAAGAVESIYSILALRDQAVPPTINLDNPDEGCDLDFVPHEARQVSGMEYTLCNSFGFGGTNGSLIFKKI [P0AAI5] | 6.45 ± 1.9 | 4.94 ± 0.21 | 4.87 ± 0.28 | 5.15 ± 0.41 | 4.89 ± 0.14 | 3.121 ± 0.02 | 6.09 ± 0.35 | 12.1 ± 0.42 | 4.89 ± 0.34 | 8.33 ± 0.17 | 6.13 ± 0.29 | 12.6 ± 0.18
MSKRYFVTGTDTEVGKTVASCALLQAAKAAGYRTAGYKPVASGSEKTPEGLRNSDALALQRNSSLQLDYATVNPYTFAEPTSPHIISAQEGRPIESLVMSAGLRALEQQADWVLVEGAGGWFTPLSDTFTFADWVTQEQLPVILVVGVKLGCINHAMLTAQVIQHAGLTLAGWVANDVTPPGKRHAEYMTTLTRMIPAPLLGEIPWLAENPENAATGKYINLALL | 5.58 ± 0.28 | 5.37 ± 1.1 | 4.33 ± 0.7 | 5.17 ± 0.34 | 4.64 ± 0.34 | 3.06 ± 0.18 | 6.24 ± 0.58 | – | 5.44 ± 0.92 | 9.86 ± 1.2 | 5.77 ± 0.12 | 12.5 ± 0.99
MSKSDVFHLGLTKNDLQGATLAIVPGDPDRVEKIAALMDKPVKLASHREFTTWRAELDGKPVIVCSTGIGGPSTSIAVEELAQLGIRTFLRIGTTGAIQPHINVGDVLVTTASVRLDGASLHFAPLEFPAVADFECTTALVEAAKSIGATTHVGVTASSDTFYPGQERYDTYSGRVVRHFKGSMEEWQAMGVMNYEMESATLLTMCASQGLRAGMVAGVIVNRTQQEIPNAETMKQTESHAVKIVVEAARRLL | 6.83 ± 0.33 | 6.27 ± 0.78 | 7.09 ± 0.43 | 5.95 ± 0.47 | 5.823 ± 0.029 | 3.23 ± 0.11 | 6.246 ± 0.033 | 13.7 ± 2.1 | 5.75 ± 0.092 | 10.7 ± 0.74 | 5.99 ± 0.2 | 12.4 ± 0.29
MSKSHPRWRLAKKILTWLFFIAVIVLLVVYAKKVDWEEVWKVIRDYNRVALLSAVGLVVVSYLIYGCYDLLARFYCGHKLAKRQVMLVSFICYAFNLTLSTWVGGIGMRYRLYSRLGLPGSTITRIFSLSITTNWLGYILLAGIIFTAGVVELPDHWYVDQTTLRILGIGLLMIIAVYLWFCAFAKHRHMTIKGQKLVLPSWKFALAQMLISSVNWMVMGAIIWLLLGQSVNYFFVLGVLLVSSIAGVIVHIPAGIGVLEAVFIALLAGEHTSKGTIIAALLAYRVLYYFIPLLLALICYLLLESQAKKLRAKNEAAM | – | – | – | – | 4.62 ± 0.87 | – | – | – | – | – | – | –
MSKSTAEIRQAFLDFFHSKGHQVVASSSLVPHNDPTLLFTNAGMNQFKDVFLGLDKRNYSRATTSQRCVRAGGKHNDLENVGYTARHHTFFEMLGNFSFGDYFKHDAIQFAWELLTSEKWFALPKERLWVTVYESDDEAYEIWEKEVGIPRERIIRIGDNKGAPYASDNFWQMGDTGPCGPCTEIFYDHGDHIWGGPPGSPEEDGDRYIEIWNIVFMQFNRQADGTMEPLPKPSVDTGMGLERIAAVLQHVNSNYDIDLFRTLIQAVAKVTGATDLSNKSLRVIADHIRSCAFLIADGVMPSNENRGYVLRRIIRRAVRHGNMLGAKETFFYKLVGPLIDVMGSAGEDLKRQQAQVEQVLKTEEEQFARTLERGLALLDEELAKLSGDTLDGETAFRLYDTYGFPVDLTADVCRERNIKVDEAGFEAAMEEQRRRAREASGFGADYNAMIRVDSASEFKGYDHLELNGKVTALFVDGKAVDAINAGQEAVVVLDQTPFYAESGGQVGDKGELKGANFSFAVEDTQKYGQAIGHIGKLAAGSLKVGDAVQADVDEARRARIRLNHSATHLMHAALRQVLGTHVSQKGSLVNDKVLRFDFSHNEAMKPEEIRAVEDLVNTQIRRNLPIETNIMDLEAAKAKGAMALFGEKYDERVRVLSMGDFSTELCGGTHASRTGDIGLFRIISESGTAAGVRRIEAVTGEGAIATVHADSDRLSEVAHLLKGDSNNLADKVRSVLERTRQLEKELQQLKEQAAAQESANLSSKAIDVNGVKLLVSELSGVEPKMLRTMVDDLKNQLGSTIIVLATVVEGKVSLIAGVSKDVTDRVKAGELIGMVAQQVGGKGGGRPDMAQAGGTDAAALPAALASVKGWVSAKLQ | 5.338 ± 0.0061 | 5.33 ± 0.19 | 5.65 ± 0.48 | 5.67 ± 0.09 | 5.06 ± 0.068 | 3.04 ± 0.14 | 6.01 ± 0.44 | 11 ± 0.2 | 5.11 ± 0.11 | 9.15 ± 0.27 | 6.2 ± 0.075 | 11.9 ± 0.62
MSKVLVLKSSILAGYSQSNQLSDYFVEQWREKHSADEITVRDLAANPIPVLDGELVGALRPSDAPLTPRQQEALALSDELIAELKAHDVIVIAAPMYNFNISTQLKNYFDLVARAGVTFRYTENGPEGLVTGKKAIVITSRGGIHKDGPTDLVTPYLSTFLGFIGITDVKFVFAEGIAYGPEMAAKAQSDAKAAIDSIVSA | 2.22 ± 0.11 | 1.48 ± 0.24 | 1.34 ± 0.044 | 1.5 ± 0.044 | 1.49 ± 0.15 | 2.81 ± 0.096 | 3.39 ± 0.25 | 5.43 ± 0.92 | 1.52 ± 0.16 | 1.85 ± 0.14 | 4.25 ± 0.14 | 6.31 ± 0.4
MSKVTPQPKIGFVSLGCPKNLVDSERILTELRTEGYDVVPSYDDADMVIVNTCGFIDSAVQESLEAIGEALNENGKVIVTGCLGAKEDQIREVHPKVLEITGPHSYEQVLEHVHHYVPKPKHNPFLSLVPEQGVKLTPRHYAYLKISEGCNHRCTFCIIPSMRGDLVSRPIGEVLSEAKRLVDAGVKEILVISQDTSAYGVDVKHRTGFHNGEPVKTSMVSLCEQLSKLGIWTRLHYVYPYPHVDDVIPLMAEGKILPYLDIPLQHASPRILKLMKRPGSVDRQLARIKQWREICPELTLRSTFIVGFPGETEEDFQMLLDFLKEARLDRVGCFKYSPVEGADANALPDQVPEEVKEERWNRFMQLQQQISAERLQEKVGREILVIIDEVDEEGAIGRSMADAPEIDGAVYLNGETNVKPGDILRVKVEHADEYDLWGSRV [P0AEI4] | 4.5 ± 0.2 | 2.28 ± 0.062 | 3.6 ± 0.089 | 4.08 ± 0.84 | 2.94 ± 0.053 | 2.36 ± 0.54 | 4.39 ± 0.39 | 7.02 ± 1.1 | 3.47 ± 0.46 | 5.31 ± 0.15 | 4.37 ± 0.28 | 6.68 ± 0.64
MSLAKDNIWKLLAPLVVMGVMFLIPVPDGMPPQAWHYFAVFVAMIVGMILEPIPATAISFIAVTICVIGSNYLLFDAKELADPAFNAQKQALKWGLAGFSSTTVWLVFGAFIFALGYEVSGLGRRIALFLVKFMGKRTLTLGYAIVIIDILLAPFTPSNTARTGGTVFPVIKNLPPLFKSFPNDPSARRIGGYLMWMMVISTSLSSSMFVTGAAPNVLGLEFVSKIAGIQISWLQWFLCFLPVGVILLIIAPWLSYVLYKPEITHSEEVATWAGDELKTMGALTRREWTLIGLVLLSLGLWVFGSEVINATAVGLLAVSLMLALHVVPWKDITRYNSAWNTLVNLATLVVMANGLTRSGFIDWFAGTMSTHLEGFSPNATVIVLVLVFYFAHYLFASLSAHTATMLPVILAVGKGIPGVPMEQLCILLVLSIGIMGCLTPYATGPGVIIYGCGYVKSKDYWRLGAIFGVIYISMLLLVGWPILAMWN [P0AE74] | – | 7.68 | – | – | – | – | – | – | – | – | – | –
MSLLAQLDQKIAANGGLIVSCQPVPDSPLDKPEIVAAMALAAEQAGAVAIRIEGVANLQATRAVVSVPIIGIVKRDLEDSPVRITAYIEDVDALAQAGADIIAIDGTDRPRPVPVETLLARIHHHGLLAMTDCSTPEDGLACQKLGAEIIGTTLSGYTTPETPEEPDLALVKTLSDAGCRVIAEGRYNTPAQAADAMRHGAWAVTVGSAITRLEHICQWYNTAMKKAVL [P0A761] | – | 5.64 | 3.95 | 4.21 ± 0.027 | 4.27 | 2.9 ± 0.27 | 5.06 ± 0.56 | 10.3 ± 1.4 | 4.14 ± 0.36 | 7.56 | 5.84 ± 1 | 9.47 ± 0.41
MSLNFLDFEQPIAELEAKIDSLTAVSRQDEKLDINIDEEVHRLREKSVELTRKIFADLGAWQIAQLARHPQRPYTLDYVRLAFDEFDELAGDRAYADDKAIVGGIARLDGRPVMIIGHQKGRETKEKIRRNFGMPAPEGYRKALRLMQMAERFKMPIITFIDTPGAYPGVGAEERGQSEAIARNLREMSRLGVPVVCTVIGEGGSGGALAIGVGDKVNMLQYSTYSVISPEGCASILWKSADKAPLAAEAMGIIAPRLKELKLIDSIIPEPLGGAHRNPEAMAASLKAQLLADLADLDVLSTEDLKNRRYQRLMSYGYA [P0ABD5] | 6.13 ± 0.7 | – | 6.72 ± 0.71 | 7.18 ± 0.38 | 5.526 ± 0.043 | 3.63 ± 0.15 | 7.76 ± 0.089 | 12.5 ± 0.96 | 6.34 ± 0.58 | 11.4 ± 2.5 | 6.27 ± 0.27 | 13.9 ± 1.9
MSLNLVSEQLLAANGLKHQDLFAILGQLAERRLDYGDLYFQSSYHESWVLEDRIIKDGSYNIDQGVGVRAISGEKTGFAYADQISLLALEQSAQAARTIVRDSGDGKVQTLGAVEHSPLYTSVDPLQSMSREEKLDILRRVDKVAREADKRVQEVTASLSGVYELILVAATDGTLAADVRPLVRLSVSVLVEEDGKRERGASGGGGRFGYEFFLADLDGEVRADAWAKEAVRMALVNLSAVAAPAGTMPVVLGAGWPGVLLHEAVGHGLEGDFNRRGTSVFSGQVGELVASELCTVVDDGTMVDRRGSVAIDDEGTPGQYNVLIENGILKGYMQDKLNARLMGMTPTGNGRRESYAHLPMPRMTNTYMLPGKSTPQEIIESVEYGIYAPNFGGGQVDITSGKFVFSTSEAYLIENGKVTKPVKGATLIGSGIETMQQISMVGNDLKLDNGVGVCGKEGQSLPVGVGQPTLKVDNLTVGGTA [P0AGG8] | 5.22 ± 1.1 | 3.75 ± 0.12 | 3.805 ± 0.0063 | 4.52 ± 0.13 | 3.73 ± 0.064 | 2.74 ± 0.14 | 5.14 ± 0.45 | 8.1 ± 0.85 | 3.88 ± 0.13 | 6.45 ± 0.19 | 5.11 ± 0.16 | 11 ± 1.7
MSLPHLSLADARNLHLAAQGLLNKPRRRASLEDIPATISRMSLLQIDTINIVARSPYLVLFSRLGNYPAQWLDESLARGELMEYWAHEACFMPRSDFRLIRHRMLAPEKMGWKYKDAWMQEHEAEIAQLIQHIHDKGPVRSADFEHPRKGASGWWEWKPHKRHLEGLFTAGKVMVIERRNFQRVYDLTHRVMPDWDDERDLVSQTEAEIIMLDNSARSLGIFREQWLADYYRLKRPALAAWREARAEQQQIIAVHVEKLGNLWLHDDLLPLLERALAGKLTATHSAVLSPFDPVVWDRKRAEQLFDFSYRLECYTPAPKRQYGYFVLPLLHRGQLVGRMDAKMHRQTGILEVISLWLQEGIKPTTTLQKGLRQAITDFANWQQATRVTLGCCPQGLFTDCRTGWEIDPVA | 6.77 | – | – | – | – | – | – | – | – | – | – | –
MSLPSIPSFVLSGLLLICLPFSSFASATTSHISFSYAARQRMQNRARLLKQYQTHLKKQASYIVEGNAESKRALRQHNREQIKQHPEWFPAPLKASDRRWQALAENNHFLSSDHLHNITEVAIHRLEQQLGKPYVWGGTRPDKGFDCSGLVFYAYNKILEAKLPRTANEMYHYRRATIVANNDLRRGDLLFFHIHSREIADHMGVYLGDGQFIESPRTGETIRISRLAEPFWQDHFLGARRILTEETIL | – | – | – | – | – | – | – | 3.06 | – | – | – | –
